This is an account of results in patent US10883090B2, “P-coumaroyl-CoA:monolignol transferases” (WISCONSIN ALUMNI RESEARCH FOUNDATION, priority 2017, dated 2021).

A short description of data set [1]: Activity screening of cell-free translated PMT enzymes with p-coumaroyl-CoA and monolignol mixture (LC-MS). Format: biochemical. To be noted: fed monolignols (H, G, S) and p-coumaroyl-CoA; FIGS. 3A, 4A, 9. The procedure:
The active enzymes were produced using a wheat germ cell-free translation bilayer method previously reported (Makino, S., Beebe, E. T., Markley, J. L. and Fox, B. G. (2014) Cell-free protein synthesis for functional and structural studies. Methods in Molecular Biology, 1091, 161-178). Briefly, a translation reaction mixture consisting of 60 OD wheat germ extract (CellFree Sciences, Matsuyama, Japan), 0.04 mg/mL creatine kinase, 0.3 mM each amino acid, 12.6 mM HEPES-KOH, pH 7.8, 52.6 mM potassium acetate, 1.3 mM magnesium acetate, 0.2 mM spermidine HCl, 2.1 mM DTT, 0.6 mM ATP, 0.13 mM GTP, 8.4 mM creatine phosphate, and 0.003% sodium azide was prepared and combined with non-purified, fresh transcription at a ratio of 4 parts reaction mix to 1 part transcription. A feeding layer was prepared consisting of 0.3 mM each amino acid, 24 mM HEPES-KOH, pH 7.8, 100 mM potassium acetate, 2.5 mM magnesium acetate, 0.4 mM spermidine HCl, 4 mM DTT, 1.2 mM ATP, 0.25 mM GTP, 16 mM creatine phosphate, and 0.005% sodium azide, of which […] was added to wells of a U-bottom 96-well plate. 25 μL of the denser translation reaction mixture was carefully underlayed below the feeding layer, forming a bilayer. The plate was sealed and incubated at 22° C. for 18 h. The fully-diffused 150-μL bilayer reaction was then harvested and used for expression analysis by SDS-PAGE, and activity screening. […]

The nature of data set [2]: Activity screening of cell-free translated PMT enzymes with feruloyl-CoA and monolignol mixture (LC-MS). The settings on record: fed monolignols (H, G, S) and feruloyl-CoA, FIGS. 3B, 4B, 10. Format: biochemical. As to the method: The active enzymes were produced using a wheat germ cell-free translation bilayer method previously reported (Makino, S., Beebe, E. T., Markley, J. L. and Fox, B. G. (2014) Cell-free protein synthesis for functional and structural studies. Methods in Molecular Biology, 1091, 161-178). Briefly, a translation reaction mixture consisting of 60 OD wheat germ extract (CellFree Sciences, Matsuyama, Japan), 0.04 mg/mL creatine kinase, 0.3 mM each amino acid, 12.6 mM HEPES-KOH, pH 7.8, 52.6 mM potassium acetate, 1.3 mM magnesium acetate, 0.2 mM spermidine HCl, 2.1 mM DTT, 0.6 mM ATP, 0.13 mM GTP, 8.4 mM creatine phosphate, and 0.003% sodium azide was prepared and combined with non-purified, fresh transcription at a ratio of 4 parts reaction mix to 1 part transcription. A feeding layer was prepared consisting of 0.3 mM each amino acid, 24 mM HEPES-KOH, pH 7.8, 100 mM potassium acetate, 2.5 mM magnesium acetate, 0.4 mM spermidine HCl, 4 mM DTT, 1.2 mM ATP, 0.25 mM GTP, 16 mM creatine phosphate, and 0.005% sodium azide, of which […] was added to wells of a U-bottom 96-well plate. 25 μL of the denser translation reaction mixture was carefully underlayed below the feeding layer, forming a bilayer. The plate was sealed and incubated at 22° C. for 18 h. The fully-diffused 150-μL bilayer reaction was then harvested and used for expression analysis by SDS-PAGE, and activity screening.
The enzyme mixture was screened for activity with p-coumaroyl-CoA (FIG. 2B) and feruloyl-CoA (FIG. 2C) and all three monolignols (FIG. 2A) (p-coumaryl, coniferyl, and sinapyl alcohol). Each enzyme was tested individually alongside positive and negative controls following the procedure previously reported (Withers, S., Lu, F., Kim, H., Zhu, Y., Ralph, J. and Wilkerson, C. G. (2012) Identification of a grass-specific enzyme that acylates monolignols with p-coumarate. Journal of Biological Chemistry, 287, 8347-8355). Briefly, the assay was initiated by adding 10 μL of wheat germ cell-free translation containing one of the PMT enzymes at a concentration of 1.5-2 μM to a reaction containing 50 mM sodium phosphate buffer, pH 6, 1 mM dithiothreitol (DTT), 1 mM CoA thioester, 1 mM monolignol mixture (each monolignol at 1 mM concentration), and deionized water in a final volume of 50 μL. After a 30-min incubation, the reaction was stopped by the addition of an equal volume 100 mM hydrochloric acid. Reaction products were solubilized by adjusting the solution to 50% methanol. An identical assay with no enzyme added was performed for every reaction. Samples were filtered through 0.2 μm filters prior to analysis by liquid chromatography-mass spectrometry (LC-MS). […]

Entries after “also recorded” stand apart in the source; their conditions may differ.

B1: SbPMT: Sorghum bicolor (sorghum) p-coumaroyl-CoA:monolignol transferase, amino acid sequence SEQ ID NO:4, Sb09g002910.1 (protein)
chain: MGTIDDTAGLFPVTRTNRSLVPPSSATPQETLRLSVIDRVAGLRHLVRSLHVFAGGENKKQAAPPAKSLREALGKALVDYYPFAGRFVEEDGEVRVACTGEGAWFVEAAAACSLEEVRHLDHPMLIPKEELLPEPAPGVNPLDMPLMMQVTEFTCGGFVVGLISVHTIADGLGAGQFINAVADYARGGATAGAVTRPRITPIWARDVIPDPPKMPAPPPRLDLLDLVYFTTDLSPDHIAKVKSSYLESTGQRCSAFDVCVARTWQARVRALRLPDAAAPVHVCFFANTRHLLPATAAAPASGFYGNCFYTVKATRPSGEVAAADIVDVVRAIRDAKARLAADFARWAAGGFDRDPYELTFTYDSLFVSDWTRLGFLEADYGWGTPTHVVPFSYHPFMAVAVIGAPPAPKPGARIMTMCVQEQHLPEFQEQMNQPCS
modifications: Sorghum bicolor
As for B1, in data set [1], the “p-coumaroyl-CoA:monolignol transferase activity (in words)” value is reported as “active PMTs, coupling monolignols to p-coumaroyl-CoA; also recorded: found to produce monolignol p-coumarate conjugates”. Also, the “feruloyl-CoA monolignol transferase activity (in words)” value in data set [2] was “limited to no feruloyl-CoA monolignol transferase activity; also recorded: little to no activity”; in data set [2] (listed as SEQ ID NO:4) it was “no relevant activity in generating monolignol ferulates”.

B2: PvPMT: Panicum virgatum (switchgrass) p-coumaroyl-CoA:monolignol transferase, amino acid sequence SEQ ID NO:2, Pavir.J00672.1 (protein, listed as Panicum virgatum)
chain: MGTIGFPVTRTSRSLVAPSSATPQETLHLSVIDRVAGLRHLVRSLHVFDGRRGEAAVRTPAETLRAALGKALVDYYPLAGRFVEEDGEVRVACTAGGAWFVEAAAACTLEEVKHLDHPMVIPKEDLLPEPAPDVNPLDMPLMMQVTEFACGGFVVGLISVHTIADGLGAGQFINAVADYARGLPRPRVLPVWARDVIPAPSRIVSPPPRFDLLDLRYFTVDLSPEHIAKVKSSFFEATGQRCSAFDVCVAKTWQSRVRALRLDGDDPARPIHVCFFANTRHLLPQLAPGFYGNCFYTVRATRPCGEVAAAGVVEVVRAIRDAKARLGADFARWAAGGFERDPYELTFSYDSLFVSDWTRLGFLEADYGWGAPAHVVPFSYHPFMAVAVIGAPPAPKPGARVMTMCVTEKHLPEFQEQMNAFAAGNHQ
For B2, the “p-coumaroyl-CoA:monolignol transferase activity (in words)” value in data set [1] is “active PMTs, coupling monolignols to p-coumaroyl-CoA; also recorded: found to produce monolignol p-coumarate conjugates”. In addition, the “feruloyl-CoA monolignol transferase activity (in words)” value was “limited to no feruloyl-CoA monolignol transferase activity; also recorded: little to no activity” in data set [2] and “no relevant activity in generating monolignol ferulates” in data set [2] (listed as SEQ ID NO:2).
